Reference: patent US20240083958A1, “G PROTEIN PEPTIDOMIMETICS” (VRIJE UNIVERSITEIT BRUSSEL, priority 2020, published 2024)
Like-named read-outs stand apart in the source and are kept apart here. Bridge positions count the residues as written; N and C are the ends. Square brackets hold non-standard residues; d marks the D form. Primed or numbered codes have the meaning given here. Azk = residue with azidated side chain, clicked to Pra; Pra′ = residue with alkynyl side chain, clicked to Azk; Cha = N[C@@H](CC1CCCCC1)C(=O)O

Experiments:
human β2AR [1] = target: T1, human β2AR (Homo sapiens, UniProt P07550, N187E); experiment: Radioligand binding assay (RLA) with human β2AR, 3H-dihydroalprenolol (DHA) as radioligand, isoproterenol (agonist) as cold competitor, in presence and absence of the peptidomimetic
T1 construct: made in house; host or cells: Sf9 insect cells (Bac-to-Bac baculovirus); membrane extracts
Experimental: β2AR365N constructs were expressed in Sf9 insect cells, using the Bac-to-Bac® Baculovirus Expression System. The membrane extracts were prepared from cells that expressed β2AR. Subsequently, the cell pellet was resuspended in a buffer (1 ml buffer/2×1E7 cells) containing 75 mM Tris pH 7.4, 12.5 mM MgCl2, 1 mM EDTA, Leupeptin and PMSF as protease inhibitors. Afterwards the cells were vortexed and homogenized in ice using a small volume Ultraturrax (6×10 sec). The cells were then centrifuged for 15 min at 16000 rcf, in a pre-cooled centrifuge (4° C.) and resuspended in the previous buffer containing 10% sucrose. Finally, the membranes were again homogenized in ice with the small volume Ultraturrax (3×10 sec). The protein concentration in the membrane fragments was determined using a Pierce BCA Protein Assay Kit and the protein concentration was extrapolated from the Bovine Serum Albumine standard curve.
To perform the radioligand competition binding assays, 96-well plates were used. For the assays on β2AR, the membrane extracts as well as the peptides were prepared in a binding buffer (75 mM Tris pH 7.4, 12.5 mM MgCl2, 1 mM EDTA, 0.2% BSA). The ligand (isoproterenol) and radioligand ([^3H]-dihydroalprenolol) were dissolved in ligand buffer (75 mM Tris pH 7.4, 12.5 mM MgCl2, 1 mM EDTA, 0.2% BSA and 0.1% ascorbic acid), at 1 mM and 2 nM, respectively. A ten-fold dilution series of the ligand was prepared to obtain a dose response curve. For each reaction 100 μl membrane extract, 50 μl ligand, 50 μl peptide or binding buffer containing 1% DMSO and 50 μl of radioligand was added to the V-bottom storage plate, with a total volume of 250 μl per well. Afterwards, the plates were incubated at room temperature for 2 h on a plate shaker (150 rpm). The samples were harvested into filter plates and washed with ice cold washing buffer (75 mM Tris pH 7,4) using the 96-well harvester. The plates were dried for 1 h at 50° C. and then sealed to allow the addition of 30 μl scintillation liquid to each well. Finally, the top of each plate was sealed and the plates were placed in a Wallac MICROBETA® Trilux scintillation counter and incubated for 30 min in the dark.
(§1) After the Microbeta scintillation counter, the experimental data was further analyzed using Graphpad Prism 6.0. After normalization of the raw data, a nonlinear regression was used to fit the data in a one-site binding model, with the total binding set as 100% and the non-specific binding between 0 and 5%. The IC50 values, obtained from the competition curves, were used to determine the shift for each peptide, which is the ratio of IC50 of the agonist test compound on the basal conformation (e.g. IC50 β2AR with no peptidomimetic) versus the active conformation (e.g. IC50 β2AR+peptidomimetic) of the receptor. For certain peptide analogues, a biphasic binding curve was observed and therefore fitted by a two-site model (nonlinear regression), resulting in two IC50 values (IC50Hi and IC50Lo) and a FractionHi, the fraction of receptors in the active state.
Synthesised peptidomimetics were evaluated using a radioligand binding assay (RLA) with a human β2AR, using ^3H-dihydroalprenolol (DHA) as the radioligand and increasing concentrations of isoproterenol (agonist) as cold competitor. In particular, the pharmacological stabilization of the receptor in the active conformation was evaluated by performing the radioligand displacement assay (RLA) in the presence and absence of the peptidomimetics. This validated assay quantifies the pharmacological stabilization of the receptor in the active conformation by comparing the affinities of an agonist for the basal versus the active GPCR conformer (Pardon et al. (2018) Angewandte Chemie International Edition 57, 5292-5295). During the assay, the binding affinity of an orthosteric agonist for the receptor, in particular isoproterenol for human β2AR, in presence and absence of the allosteric peptidomimetic was determined. […]

[2] = target: dopamine 1 receptor (D1R) (Homo sapiens, UniProt P21728); experiment: GPCR-radioligand binding assay (RLA) with dopamine 1 receptor (D1R), [3H]-SCH23390 as radiolabelled antagonist, A-77636 (agonist), in presence and absence of the peptidomimetic; conditions: Table 19; peptidomimetic at 10 μM; ratio IC50 D1R alone / IC50 D1R + peptidomimetic
dopamine 1 receptor (D1R) (Homo sapiens, UniProt P21728), sequence (P21728 whole entry): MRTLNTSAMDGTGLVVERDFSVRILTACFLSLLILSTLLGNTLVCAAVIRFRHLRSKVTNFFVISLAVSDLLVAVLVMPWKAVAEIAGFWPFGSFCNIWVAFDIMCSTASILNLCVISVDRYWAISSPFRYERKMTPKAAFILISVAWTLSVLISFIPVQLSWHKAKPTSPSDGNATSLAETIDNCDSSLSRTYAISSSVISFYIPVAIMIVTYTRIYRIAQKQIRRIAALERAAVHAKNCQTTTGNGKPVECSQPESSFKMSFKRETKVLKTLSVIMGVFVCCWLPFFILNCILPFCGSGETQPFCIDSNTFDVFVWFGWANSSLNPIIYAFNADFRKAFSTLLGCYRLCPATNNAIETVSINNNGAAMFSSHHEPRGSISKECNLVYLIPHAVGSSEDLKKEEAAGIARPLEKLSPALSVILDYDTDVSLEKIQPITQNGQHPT
Experimental: For the radioligand assays on D1R a similar buffer, as for β2AR, was used for the ligands, membrane extracts and peptides (+1% DMSO). The competition assay was performed with [^3H]-SCH23390 as radiolabelled antagonist, at a concentration of 2 nM. A ten-fold dilution series of the agonist, A-77636, was prepared to obtain a dose response curve, starting from 100 μM for the receptor alone and 10 μM in the presence of the peptidomimetics. After incubation, the samples were harvested into filter plates, pre-soaked with 0.5% polyethylenimine (PEI), and washed with ice cold washing buffer using the 96-well harvester. After drying in the oven during 1 h and the addition of scintillation liquid, the plates were placed in the MICROBETA® scintillation counter and incubated for 30 min in the dark before reading.
as §1
Peptidomimetics were screened using GPCR-radioligand binding assay (RLA) with dopamine 1 receptor (D1R) binding, using [^3H]-SCH23390 as radiolabelled antagonist, and increasing concentrations of A-77636 (agonist). The half maximal inhibitory concentration (IC50) represents the affinity of the agonist for the receptor. The selectivity is quantified by the shift. “[ ]” denotes cyclic peptides.

human β2AR [3] = target: T2, human β2AR (human, UniProt P07550 2-365); experiment: cell-based or functional assay
human β2AR [4] = target: T2, human β2AR; experiment: cell-based or functional assay; remark: listed apart in the source
human β2AR [5] = target: T2, human β2AR; experiment: cell-based or functional assay; remark: listed apart in the source
human β2AR [6] = target: T2, human β2AR; experiment: cell-based or functional assay; remark: listed apart in the source
human β2AR [7] = target: T2, human β2AR; experiment: cell-based or functional assay; remark: listed apart in the source
human β2AR [8] = target: T2, human β2AR; experiment: cell-based or functional assay; remark: listed apart in the source
human β2AR [9] = target: T2, human β2AR; experiment: cell-based or functional assay; remark: listed apart in the source
human β2AR [10] = target: T2, human β2AR; experiment: cell-based or functional assay; remark: listed apart in the source
human β2AR [11] = target: T2, human β2AR; experiment: cell-based or functional assay; remark: listed apart in the source
human β2AR [12] = target: T2, human β2AR; experiment: cell-based or functional assay; remark: listed apart in the source
[13] = target: dopamine 1 receptor (D1R) (UniProt P21728 1-446, limits assumed); experiment: cell-based or functional assay
dopamine 1 receptor (D1R) (UniProt P21728 1-446, limits assumed), sequence (P21728 whole entry): as above

Molecule: Ac-KKKFN[PraCRDAzk]IQRMHLRQYEChaL-OH (Ac-KKKFN[Pra′]CRD[Azk]IQRMHLRQYE[Cha]L-OH; triazole 6-10) [compound 51]
- Fraction HI (%) (human β2AR [1]; Table 10, peptidomimetic at 1 μM (printed 511 μM), fraction of receptors in the active state): 54%
- Fraction HI (%) (human β2AR [1]; Table 10, peptidomimetic at 10 μM, fraction of receptors in the active state): 76%
- Shift (human β2AR [1]; Table 10, peptidomimetic at 10 μM, ratio IC50 β2AR alone / + peptidomimetic): 175
- Fraction HI (%) (human β2AR [1]; Table 10, peptidomimetic at 50 μM, fraction of receptors in the active state): 79%
- Shift (human β2AR [1]; Table 10, peptidomimetic at 50 μM, ratio IC50 β2AR alone / + peptidomimetic): 170
- Fraction HI (%) (human β2AR [1]; Table 10, peptidomimetic at 100 μM, fraction of receptors in the active (high affinity) state, two-site model): 77%
- Shift (human β2AR [1]; Table 10, peptidomimetic at 100 μM, ratio IC50 β2AR alone / + peptidomimetic): 345
- Shift (human β2AR [1]; Table 10, ratio IC50 β2AR alone / + peptidomimetic): 21
- Shift [2]: 52

Molecule: Nb80 (VHH)
- IC50 (nM) of isoproterenol, [3H]-DHA RLA, Nb80 present (human β2AR [3]): 9.7 nM
- Shift (human β2AR [3]): 146

Molecule: FNDCRDIIQRMHLRQYELL [compound 2, Ac-FNDCRDIIQRMHLRQYELL-OH]
- Shift (human β2AR [1]; Table 1, ratio IC50 β2AR alone / IC50 β2AR + peptidomimetic): 6
- Shift [2]: 2

Molecule: Ac-FN[Pra′]CRD[Azk]IQRMHLRQYELL-OH (triazole 3-7) [compound 12]
- IC50 (nM) of isoproterenol, [3H]-DHA RLA, peptidomimetic present (human β2AR [4]): 47.3 nM
- Shift (human β2AR [4]): 20
- IC50 (nM) of isoproterenol, [3H]-DHA RLA, peptidomimetic present (human β2AR [5]): 38.9 nM
- IC50 (nM) of isoproterenol, [3H]-DHA RLA, peptidomimetic present (human β2AR [6]): 37.3 nM
- Shift (human β2AR [6]): 31
- Shift (averaged) (human β2AR [7]): 27

Molecule: Ac-FNDCRDIIQRMHLRQYELL-OH [compound 2]
- IC50 (nM) of isoproterenol, [3H]-DHA RLA, peptidomimetic present (human β2AR [8]): 79.4 nM
- Shift (human β2AR [8]): 10
- IC50 (nM) of isoproterenol, [3H]-DHA RLA, peptidomimetic present (human β2AR [9]): 77.1 nM
- Shift (human β2AR [9]): 13
- IC50 (nM) of isoproterenol, [3H]-DHA RLA, peptidomimetic present (human β2AR [10]): 118 nM
- Fraction HI (%) (human β2AR [11]): 21%
- IC50 (nM) of isoproterenol, [3H]-DHA RLA, peptidomimetic present (human β2AR [11]): 124 nM
- Shift (human β2AR [11]): 13
- IC50 (nM) of isoproterenol, [3H]-DHA RLA, peptidomimetic present (human β2AR [12]): 97.6 nM
- Shift (human β2AR [12]): 9
- IC50 (nM) of A-77636, [3H]-SCH23390 RLA, compound 2 at 10 µM [13]: 5.8 nM
- Shift (averaged) (human β2AR [7]): 10

Molecule: Ac-RDIIQRMHLRQYELL-OH [compound 16]
- IC50 (nM) of isoproterenol, [3H]-DHA RLA, peptidomimetic present (human β2AR [10]): 614 nM
